# Laboratory results as given in patent US20240287202A1 (XYPHOS BIOSCIENCES, published 2024).
# T1: His-tagged monomeric ULBP2 R81W (human, UniProt Q9BZM5 29-212)
# T1 construct: range 29-212; Construct limits are stated only for wild-type ULBP2-His; position 81 counts on the mature protein, not on the UniProt entry
# T1 sequence: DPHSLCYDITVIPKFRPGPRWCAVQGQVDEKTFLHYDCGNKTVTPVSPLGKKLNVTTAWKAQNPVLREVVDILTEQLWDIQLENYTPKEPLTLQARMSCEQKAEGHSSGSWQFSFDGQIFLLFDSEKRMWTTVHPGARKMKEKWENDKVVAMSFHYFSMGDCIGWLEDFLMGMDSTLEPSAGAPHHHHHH
# T2: A1-A2 domain of human ULBP3 with C-terminal 6x-His tag (monomer) (human, UniProt Q9BZM4 30-212)
# T2 construct: range 30-212; also called MIC-His ligand
# T2 sequence: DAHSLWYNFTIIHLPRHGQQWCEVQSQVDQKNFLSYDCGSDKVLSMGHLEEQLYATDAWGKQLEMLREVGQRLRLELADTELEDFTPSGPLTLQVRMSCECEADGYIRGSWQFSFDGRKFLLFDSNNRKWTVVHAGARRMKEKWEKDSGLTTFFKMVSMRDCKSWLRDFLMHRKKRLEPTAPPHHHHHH
# T3: A1-A2 domain of human MICB with C-terminal 6x-His tag (monomer) (human, UniProt Q29980 24-205)
# T3 construct: range 24-205; also called MIC-His ligand
# T3 sequence: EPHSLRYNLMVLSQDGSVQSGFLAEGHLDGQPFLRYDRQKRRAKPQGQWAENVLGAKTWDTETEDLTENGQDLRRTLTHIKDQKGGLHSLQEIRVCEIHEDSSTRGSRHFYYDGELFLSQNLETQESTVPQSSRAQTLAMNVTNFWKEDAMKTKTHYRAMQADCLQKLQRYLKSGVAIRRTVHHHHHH
# T4: A1-A2 domain of human MICA*001 with C-terminal 6x-His tag (monomer) (human, UniProt Q29983 24-205)
# T4 construct: range 24-205; also called MIC-His ligand
# T4 sequence: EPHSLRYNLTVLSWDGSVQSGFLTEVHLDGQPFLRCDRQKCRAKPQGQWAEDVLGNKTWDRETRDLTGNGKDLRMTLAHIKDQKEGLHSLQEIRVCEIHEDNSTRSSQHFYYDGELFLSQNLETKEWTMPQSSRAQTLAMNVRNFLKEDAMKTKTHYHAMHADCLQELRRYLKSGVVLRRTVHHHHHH
# T5: ULBP2-Fc (R&D Systems) (human, UniProt Q9BZM5 26-217)
# T5 construct: Bought; also called Ligand-Fc fusion; not shown: Fc of the bought fusion; not described
# T5 sequence (looked up): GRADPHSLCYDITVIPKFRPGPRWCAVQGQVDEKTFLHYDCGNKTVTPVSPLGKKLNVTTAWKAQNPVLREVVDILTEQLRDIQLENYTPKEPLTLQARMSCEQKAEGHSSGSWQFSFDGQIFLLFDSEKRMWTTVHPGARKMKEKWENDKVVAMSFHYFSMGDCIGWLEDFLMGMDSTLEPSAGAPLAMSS
# T6: ULBP1-Fc (R&D Systems) (human, UniProt Q9BZM6 26-216)
# T6 construct: Bought; also called Ligand-Fc fusion; not shown: Fc of the bought fusion; not described
# T6 sequence (looked up): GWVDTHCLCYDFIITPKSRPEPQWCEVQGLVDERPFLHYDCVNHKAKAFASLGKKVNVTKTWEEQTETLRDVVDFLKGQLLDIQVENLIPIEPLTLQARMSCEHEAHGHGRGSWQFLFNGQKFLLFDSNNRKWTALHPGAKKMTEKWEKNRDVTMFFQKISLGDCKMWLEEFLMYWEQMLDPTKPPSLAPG
# T7: ULBP4-Fc (R&D Systems) (human, UniProt Q8TD07 31-225, limits assumed)
# T7 construct: Bought; also called Ligand-Fc fusion; not shown: Fc of the bought fusion; not described
# T7 sequence (looked up): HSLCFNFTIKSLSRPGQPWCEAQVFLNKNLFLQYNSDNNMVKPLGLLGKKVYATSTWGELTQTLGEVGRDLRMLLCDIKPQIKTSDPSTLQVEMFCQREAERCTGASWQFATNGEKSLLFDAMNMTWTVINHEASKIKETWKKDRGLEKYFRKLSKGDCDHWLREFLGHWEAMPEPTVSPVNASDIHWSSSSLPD
# T8: MICB-Fc (R&D Systems) (human, UniProt Q29980 23-298, limits assumed)
# T8 construct: Bought; also called Ligand-Fc fusion; not shown: Fc of the bought fusion; not described
# T8 sequence (looked up): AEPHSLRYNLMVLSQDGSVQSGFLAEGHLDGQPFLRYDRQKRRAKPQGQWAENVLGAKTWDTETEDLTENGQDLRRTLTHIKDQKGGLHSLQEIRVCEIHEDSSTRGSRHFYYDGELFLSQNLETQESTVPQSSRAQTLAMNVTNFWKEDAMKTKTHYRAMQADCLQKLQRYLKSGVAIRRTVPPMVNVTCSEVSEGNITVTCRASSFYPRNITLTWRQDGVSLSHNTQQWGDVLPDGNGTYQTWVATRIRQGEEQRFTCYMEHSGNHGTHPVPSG
# T9: MICA-Fc (R&D Systems) (human, UniProt Q29983 24-308, limits assumed)
# T9 construct: Bought; also called Ligand-Fc fusion; not shown: Fc of the bought fusion; not described
# T9 sequence (looked up): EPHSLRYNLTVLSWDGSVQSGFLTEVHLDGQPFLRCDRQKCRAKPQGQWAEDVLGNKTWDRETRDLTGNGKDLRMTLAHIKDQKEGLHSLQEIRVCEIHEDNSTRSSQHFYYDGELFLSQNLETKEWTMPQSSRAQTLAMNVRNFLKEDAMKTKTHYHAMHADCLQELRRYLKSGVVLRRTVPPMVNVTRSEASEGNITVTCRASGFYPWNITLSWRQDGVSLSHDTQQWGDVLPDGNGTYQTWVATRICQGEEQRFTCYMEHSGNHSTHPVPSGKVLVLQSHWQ
# T10: ULBP3-Fc (R&D Systems) (human, UniProt Q9BZM4 30-217)
# T10 construct: Bought; also called Ligand-Fc fusion; not shown: Fc of the bought fusion; not described
# T10 sequence (looked up): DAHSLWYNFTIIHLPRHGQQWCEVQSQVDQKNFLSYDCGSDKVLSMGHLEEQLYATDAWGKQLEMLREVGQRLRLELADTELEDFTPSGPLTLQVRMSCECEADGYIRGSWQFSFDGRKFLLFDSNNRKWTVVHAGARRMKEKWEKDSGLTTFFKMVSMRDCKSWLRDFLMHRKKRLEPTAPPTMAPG
# T11: Fc-wtNKG2D (wild-type NKG2D ectodomain fused to the C-terminus of human IgG1 Fc) (human, UniProt P26718 78-216)
# T11 construct: range 78-216; Dimeric secreted protein from Expi293 cells; also called Fc-NKG2D; not shown: human IgG1 Fc
# T11 sequence: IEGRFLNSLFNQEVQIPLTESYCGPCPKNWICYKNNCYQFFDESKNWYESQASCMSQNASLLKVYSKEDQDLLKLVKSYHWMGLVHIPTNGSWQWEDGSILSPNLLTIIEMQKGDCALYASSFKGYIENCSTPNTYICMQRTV
# T12: mouse NKG2D (mouse, UniProt O54709 94-232, limits assumed)
# T12 construct: also called mouse wild-type NKG2D
# T12 sequence (looked up): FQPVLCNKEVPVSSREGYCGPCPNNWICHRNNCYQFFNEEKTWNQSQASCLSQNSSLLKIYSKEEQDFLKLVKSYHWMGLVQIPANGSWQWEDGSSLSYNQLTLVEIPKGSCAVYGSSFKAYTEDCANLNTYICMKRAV
# B1: Fc-iNKG2D.YA (NKG2D ectodomain Y152A fused to the C-terminus of human IgG1 Fc) (Fc fusion)
# chain: IEGRFLNSLFNQEVQIPLTESYCGPCPKNWICYKNNCYQFFDESKNWYESQASCMSQNASLLKVYSKEDQDLLKLVKSAHWMGLVHIPTNGSWQWEDGSILSPNLLTIIEMQKGDCALYASSFKGYIENCSTPNTYICMQRTV
# notes: range 78-216; it is not tied by words to this Fc fusion; not shown: human IgG1 Fc
# How the values were obtained:
# [1] = target: T1, His-tagged monomeric ULBP2 R81W; assay: Octet BLI; Fc-iNKG2D.YA captured on AHC tips, dilution series of His-tagged monomeric ligand
# Description: YA. […] YA were captured with anti-human IgG Fc capture (AHC) biosensor tips then associated with a dilution series of ligand. Data are from single experiments.
# [2] = target: T2, A1-A2 domain of human ULBP3 with …; assay: as above
# Description: (§1) Note that all axes are to the same scale (Binding-0 nm, 0.4 nm. 0.8 nm, 1.2 nm (y-axis); Time-0 s, 50 s, 100 s, 150 s, 200 s, 250 s, 300 s, 350 s (x-axis). Data is representative of a single experiment.
# [3] = target: T3, A1-A2 domain of human MICB with …; assay: as above
# Description: as §1
# [4] = target: T4, A1-A2 domain of human MICA*001 with …; assay: as above
# Description: as §1
# [5] = target: T5, ULBP2-Fc (R&D Systems); assay: ELISA; ligand-Fc coated, biotinylated Fc-iNKG2D.YA, streptavidin-HRP (legend: the Fc-NKG2D is titrated; axis on the sheet: nM ligand-Fc)
# [6] = target: T6, ULBP1-Fc (R&D Systems); assay: as above
# [7] = target: T7, ULBP4-Fc (R&D Systems); assay: as above
# [8] = target: T8, MICB-Fc (R&D Systems); assay: as above
# [9] = target: T9, MICA-Fc (R&D Systems); assay: as above
# [10] = target: T10, ULBP3-Fc (R&D Systems); assay: as above
# [11] = target: B1; assay: Octet BLI; Fc-iNKG2D.YA captured on AHC tips, two-fold dilution series of MicAbody from 50 nM
# Description: (§2) The y-axes corresponding to binding responses were set to the same scale for all sensograms.
# [12] = target: T11, Fc-wtNKG2D (wild-type NKG2D ectodomain …); assay: Octet BLI; Fc-wtNKG2D captured on AHC tips, two-fold dilution series of MicAbody from 50 nM
# Description: as §2
# [13] = target: T12, mouse NKG2D; assay: ELISA on mouse NKG2D, absorbance against nM MicAbody
# [14] = target: T11, Fc-wtNKG2D (wild-type NKG2D ectodomain …); assay: Octet BLI; Fc-wtNKG2D captured on AHC tips, two-fold dilution series from 50 nM
# Description: as §2
# [15] = target: B1; assay: Octet BLI; Fc-iNKG2D.YA captured on AHC tips, two-fold dilution series from 50 nM
# Description: as §2
binder,measurement,setting,value
B1,Kd,[1],3.6 µM
same,binding result,[2],no binding (tested: 1.2 uM)
same,binding result,[3],no binding (tested: 0.3 uM)
same,binding result,[4],no binding (tested: 1.2 uM)
same,binding result,[5],no binding (tested: 2000 nM)
same,binding result,[6],no binding (tested: 2000 nM)
same,binding result,[7],no binding (tested: 2000 nM)
same,binding result,[8],no binding (tested: 2000 nM)
same,binding result,[9],no binding (tested: 2000 nM)
same,binding result,[10],no binding (tested: 2000 nM)
"Rituximab.HC-U2S3 MicAbody (U2S3 A1-A2 domain fused to the C-terminus of the rituximab heavy chain) (bispecific antibody, IgG1, IgG1 kappa, D265A/N297A; also called HC-fused MicAbody; Rit.HCd.S3; not shown: human IgG1 heavy-chain constant region, ADCC-deficient; human kappa light-chain constant region) heavy (part 1 of 2): QVQLQQPGAELVKPGASVKMSCKASGYTFTSYNMHWVKQTPGRGLEWIGAIYPGNGDTSYNQKFKGKATLTADKSSSTAYMQLSSLTSEDSAVYYCARSTYYGGDWYFNVWGAGTTVTVSAA heavy (part 2 of 2): GGGSEPHSLSYDITVIPKFRPGPRWCAVQGQVDEKTFLHYDCGQKTVTPVSPLGKKLQVTTAWKAQNPVLREVVDILTEQLWDIQLENYTPKEPLTLQARMSCEQKAEGHSSGSWQFSFDGQIFLLFDSEKRMWTTVHPGARKMKEKWENDKVVATKLYLWSMGDCIGWLEDFLMGMDSTLEPS light: QIVLSQSPAILSASPGEKVTMTCRASSSVSYIHWFQQKPGSSPKPWIYATSNLASGVPVRFSGSGSGTSYSLTISRVEAEDAATYYCQQWTSNPPTFGGGTKLEIK",Kd,[11],23 pM
same,binding result,[12],no binding (tested: 50 nM (legend))
"Rituximab (antibody, V domains shown, also called Rituximab (ADCC-); Rituxumab (ADCC); copies: 2 + 2) VH: QVQLQQPGAELVKPGASVKMSCKASGYTFTSYNMHWVKQTPGRGLEWIGAIYPGNGDTSYNQKFKGKATLTADKSSSTAYMQLSSLTSEDSAVYYCARSTYYGGDWYFNVWGAGTTVTVSA VL: QIVLSQSPAILSASPGEKVTMTCRASSSVSYIHWFQQKPGSSPKPWIYATSNLASGVPVRFSGSGSGTSYSLTISRVEAEDAATYYCQQWTSNPPTFGGGTKLEIKR",binding result,[13],no binding (tested: about 300 nM)
same,binding result,[14],no binding (tested: 50 nM (legend))
same,binding result,[15],no binding (tested: 50 nM (legend))
